The target in assay [1] is CFP from CFP-empty plasmid (pECFP). In words: FRET by acceptor photobleaching; negative control, cotransfection of empty CFP and YFP plasmids in MDA-MB231 cells.
Assay [2] has as its target CFP-tagged CD44 (human full length CD44s cDNA fused in frame into pECFP, expressed in MDA-MB231 cells) (human) (UniProt P16070). In words: FRET by acceptor photobleaching, confocal microscopy, MDA-MB231 cells coexpressing CFP-CD44 and YFP-OPN.
Assay [3] shares this target. In words: FRET by acceptor photobleaching, CFP-CD44/YFP-OPN in MDA-MB231 cells, in the presence of mutated OPN-R3 RNA aptamer (control).
For assay [4] the target is unchanged. In words: FRET by acceptor photobleaching, CFP-CD44/YFP-OPN in MDA-MB231 cells, in the presence of blocking antibody to αvβ3 integrin.

In assay [1], YFP from YFP-empty plasmid (pEYFP) yielded an FRET efficiency of 0.23%.

Take “YFP-tagged OPN (human OPN cDNA fused in frame into pEYFP, expressed in MDA-MB231 cells) (from UniProt P10451 17-314) (ligand)”: the FRET efficiency in assay [2] stood at 24.2%; in assay [3], 23.1%; in assay [4] it was 19.6%.

The values are drawn from patent US20110190386A1.
